In assay [1] the target is T1, Activin A (human, UniProt P08476 311-426).
T1 construct: Homodimer of two βA subunits; bought from R&D Systems (#338-AC); also called inhibin-βA dimer; human Activin A
T1 sequence: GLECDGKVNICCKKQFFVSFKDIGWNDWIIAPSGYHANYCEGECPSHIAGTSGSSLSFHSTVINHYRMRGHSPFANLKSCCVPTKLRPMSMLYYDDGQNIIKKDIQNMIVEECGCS
Briefly: SPR, captured mAb, 25C. As for the experimental part: (§1) Antibody-antigen association was monitored for 240 seconds while dissociation in buffer was monitored for 600 seconds. Kinetic association and dissociation rate constants were determined by processing and fitting the data using Scrubber software version 2.0c. Binding equilibrium dissociation constants (KD) and dissociative half-lives (t_{1/2}) were then calculated from the kinetic rate constants as: KD (M)=kd/kₐ and t_{1/2} (min)=[ln 2/(60*kd)]. (NB=no binding observed under the conditions used; NT=not tested).
In general terms: In SPR one partner is held on a chip, and binding of the other changes the refractive index at the surface.

Assay [2] concerns the target T1, Activin A. Description: SPR, captured mAb, 25C; no dissociation observed, kd fixed. The protocol:
as §1

Assay [3] concerns the target T1, Activin A. Briefly: SPR, captured mAb, 37C. The protocol: as §1
In assay [4] the target is T1, Activin A. Briefly: SPR, captured mAb, 37C; no dissociation observed, kd fixed. The protocol:
as §1

The target in assay [5] is T2, Activin A (homodimer of two inhibin βA subunits; R&D Systems, #338-AC) (human, UniProt P08476 311-426).
T2 construct: Bought protein; also called inhibin-βA dimer
T2 sequence: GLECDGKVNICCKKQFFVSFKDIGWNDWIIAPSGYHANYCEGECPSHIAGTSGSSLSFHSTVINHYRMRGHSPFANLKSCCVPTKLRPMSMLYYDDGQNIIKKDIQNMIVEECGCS
Description: SPR blocking: 5 nM Activin A + 60 nM binder over hActRIIA-hFc surface. The protocol: (§2) The binding signal (RU) was measured at 150 seconds after the start of the injection, and this signal was subtracted by the measured RU value for a negative control reference surface to determine the specific binding signal.

Assay [6] concerns the target T2, Activin A (homodimer of two inhibin βA …). Briefly: SPR blocking: 5 nM Activin A + 0 nM binder over Follistatin-288 surface. As for the experimental part: as §2
The target is the same in assay [7]. Briefly: SPR blocking: 5 nM Activin A + 60 nM binder over hActRIIB-hFc (Control 4) surface. The protocol:
as §2

For assay [8] the target is unchanged. Briefly: SPR blocking: 5 nM Activin A + 30 nM binder over hActRIIA-hFc surface. As for the experimental part:
as §2

Assay [9] has the same target. Description: SPR blocking: 5 nM Activin A + 3.75 nM binder over Follistatin-288 surface. As for the experimental part:
as §2

Assay [10] has the same target. Description: SPR blocking: 5 nM Activin A + 30 nM binder over Follistatin-288 surface. As for the experimental part:
as §2

For assay [11] the target is unchanged. Description: SPR blocking: 5 nM Activin A + 15 nM binder over hActRIIA-hFc surface. As for the experimental part: as §2
Assay [12] has the same target. Description: SPR blocking: 5 nM Activin A + 60 nM binder over Follistatin-288 surface. As for the experimental part: as §2
Assay [13] shares this target. Description: SPR blocking: 5 nM Activin A + 1.88 nM binder over hActRIIB-hFc (Control 4) surface. The protocol: as §2
Assay [14] shares this target. Briefly: SPR blocking: 5 nM Activin A + 1.88 nM binder over hActRIIA-hFc surface. The protocol:
as §2

Assay [15] shares this target. Description: SPR blocking: 5 nM Activin A + 0.94 nM binder over hActRIIB-hFc (Control 4) surface.
Assay [16] shares this target. Description: SPR blocking: 5 nM Activin A + 0.00 nM binder over hActRIIA-hFc surface. The protocol: as §2
Assay [17] has the same target. Briefly: SPR blocking: 5 nM Activin A + 30 nM binder over hActRIIB-hFc (Control 4) surface. The protocol:
as §2

Assay [18] has the same target. Briefly: SPR blocking: 5 nM Activin A + 0.00 nM binder over hActRIIB-hFc (Control 4) surface. As for the experimental part: as §2
Assay [19] has the same target. Description: SPR blocking: 5 nM Activin A + 7.5 nM binder over Follistatin-288 surface. The protocol: as §2
Assay [20] shares this target. Description: SPR blocking: 5 nM Activin A + 1.88 nM binder over Follistatin-288 surface. The protocol:
as §2

Assay [21] shares this target. Description: SPR blocking: 5 nM Activin A + 15 nM binder over hActRIIB-hFc (Control 4) surface.
The target is the same in assay [22]. Briefly: SPR blocking: 5 nM Activin A + 0.94 nM binder over Follistatin-288 surface. The protocol:
as §2

Assay [23] shares this target. Briefly: SPR blocking: 5 nM Activin A + 7.50 nM binder over hActRIIB-hFc (Control 4) surface.
For assay [24] the target is unchanged. Briefly: SPR blocking: 5 nM Activin A + 0.94 nM binder over hActRIIA-hFc surface. The protocol:
as §2

The target is the same in assay [25]. Description: SPR blocking: 5 nM Activin A + 3.75 nM binder over hActRIIB-hFc (Control 4) surface. As for the experimental part:
as §2

Assay [26] has the same target. Description: SPR blocking: 5 nM Activin A + 3.75 nM binder over hActRIIA-hFc surface. The protocol: as §2
Assay [27] has the same target. Briefly: SPR blocking: 5 nM Activin A + 15 nM binder over Follistatin-288 surface. The protocol: as §2
For assay [28] the target is unchanged. Briefly: SPR blocking: 5 nM Activin A + 7.50 nM binder over hActRIIA-hFc surface. As for the experimental part: as §2

The Kd is the constant that tells how readily two partners part at equilibrium. A higher Kd goes with lower affinity. By kon is commonly meant the rate constant with which the complex forms. Higher therefore signals fast association. What is called koff is the rate constant with which the complex falls apart. Low values mean slow dissociation, high ones fast dissociation.

Where only a bound is given, the exact number is not on record here.

B1: H4H10447P2 (antibody, human IgG4, V domains shown)
VH: QVQLQESGPGLVKPSETLSLTCSVSGGSFSSHFWSWIRQPPGKGLEWIGYIHYSGGTNYNPSLKSRVTISVDTSKNQFSLKLTSVTAADTADYYCARAISGITFGGMIVPGSFDVWGEGTMVTVSS
VL: not shown
In the case of B1, in assay [1], the “Activin A-20 nM (RU)” value is 43 RU, the Kd was at most 0.0212 nM, the kon amounted to 2.36e+06 M⁻¹ s⁻¹ and the t1/2 was at least 3.85 h. This molecule had a koff in [2] of at most 5e-05 s⁻¹. In addition, in [3], the “Activin A-20 nM (RU)” value came to 36 RU, the Kd was at most 0.0107 nM, the kon stood at 4.69e+06 M⁻¹ s⁻¹ and the t1/2 was at least 3.85 h. In addition, in assay [4], the koff is at most 5e-05 s⁻¹.

B2: H4H10448P2 (antibody, human IgG4, V domains shown)
VH: QVQLQESGPGLVKPSETLSLTCTVSGGTFSSHFWSWIRQPPGKGLEWIGYIFYTGGTNHNPSLKSRVTISIDTSKNQFSLKLTSVTAADTAVYYCARARSGITFGGVIVPGSFDIWGQGTMVTVSS
VL: not shown
With B2, in assay [1], the “Activin A-20 nM (RU)” value came out at 64 RU, the Kd was at most 0.0105 nM, the kon amounted to 4.76e+06 M⁻¹ s⁻¹ and the t1/2 was at least 3.85 h. In addition, the koff in assay [2] is at most 5e-05 s⁻¹. Moreover, in assay [3], the “Activin A-20 nM (RU)” value turned out to be 49 RU, the Kd was at most 0.00636 nM, the kon was found to be 7.86e+06 M⁻¹ s⁻¹ and the t1/2 was at least 3.85 h. Moreover, in assay [4], the koff is at most 5e-05 s⁻¹.

B3: H4H10452P2 (antibody, human IgG4, V domains shown)
VH: QVQLQESGPGLVKPSETLSLTCTVSGGSFSSHFWNWIRQSPGRGLEWIGYIYYSGGTNYNPSFKSRVTMSVDTSKNQFSLKLSSVTAADTAVFYCARARSGITFGGVLVPGSFDIWGQGTMVTVSS
VL: not shown
In the case of B3, in [1], the “Activin A-20 nM (RU)” value was 55 RU, the Kd was at most 0.0107 nM, the kon came to 4.69e+06 M⁻¹ s⁻¹ and the t1/2 is at least 3.85 h. For the same molecule, the koff in [2] was at most 5e-05 s⁻¹. Besides, in [3], the “Activin A-20 nM (RU)” value came to 43 RU, the Kd is at most 0.0063 nM, the kon came to 7.94e+06 M⁻¹ s⁻¹ and the t1/2 was at least 3.85 h. The molecule also yielded a koff in [4] of at most 5e-05 s⁻¹.

B4: H4H10442P2 (antibody, human IgG4, V domains shown)
VH: QVQLQESGPGLVKPSETLSITCTVSGGSFSSHFWTWIRQPPGKGLEWIGYLHYSGGTSYNPSLKSRVIISVDTSKNQFSLKLNSVTAADTAVYYCARARSGITFGGLIVPGSFDIWGQGTMVTVSS
VL: not shown
notes: H4H prefix means human IgG4 Fc
Consider B4, for which the “% bound RU w/no inhibitor” value worked out at 118% in assay [5]; 100% in [6]; 124% in [7]; 117% in assay [8]; 6% in [9]; 3% in [10]. Besides, the “% bound RU w/no inhibitor” value in assay [11] turned out to be 113%; in assay [12], 3%; in assay [13], 106%; in assay [14], 114%; in assay [15] it was 110%; in [16] it was 100%. Also, the “% bound RU w/no inhibitor” value in assay [17] was 122%; in assay [18], 100%; in assay [19], 3%; in assay [20] it was 46%; in assay [21], 115%; in assay [22] it was 73%. The “% bound RU w/no inhibitor” value in assay [23] was determined as 103%; in assay [24], 114%; in assay [25], 88%; in assay [26], 95%; in assay [27] it was 3%; in assay [28], 105%.

Source of the values: patent US20150037339A1 (Regeneron, published 2015).
